Data from US20170165339A1.

Each binder was assayed against HLA-A*24 (human) (assay: UV peptide-exchange ELISA, yield grade).

| peptide exchange yield | Binder |
| --- | --- |
| 50 to 75% | LYITEPKTI [… (SEQ ID NO: 287)] |
| 50 to 75% | HYPPVQVLF [… (SEQ ID NO: 285)] |
| 20 to 49% | PYRLIFEKF [… (SEQ ID NO: 281)] |

Second part, the binder before the results:

| Binder | peptide exchange yield |
| --- | --- |
| YFIDSTNLKTHF [… (SEQ ID NO: 269)] | 50 to 75% |
| QYLGQIQHI [… (SEQ ID NO: 268)] | 50 to 75% |
| NYYEVHKELF [… (SEQ ID NO: 270)] | 50 to 75% |
| VYQGHTALL [… (SEQ ID NO: 277)] | > 75% |
